Experiments:
[1] = target: Propionibacterium acnes (P. acnes) whole cells, surface antigen not identified (Propionibacterium acnes); experiment: mono-scFv-phage ELISA on whole P. acnes
[2] = target: control cells (Staphylococcus epidermidis), whole cells (Staphylococcus epidermidis); experiment: mono-scFv-phage ELISA on control cells
[3] = target: Propionibacterium acnes (P. acnes) whole cells, surface antigen not identified (Propionibacterium acnes); experiment: IgG ELISA on whole P. acnes
[4] = target: control cells (Staphylococcus epidermidis), whole cells (Staphylococcus epidermidis); experiment: IgG ELISA on control cells

Row | Binder | ELISA O.D. value [1] [O.D.] | O.D. 450 nm [1] [O.D. 450 nm] | O.D. 450 nm [2] [O.D. 450 nm] | O.D. 450 nm [3] [O.D. 450 nm] | O.D. 450 nm [4] [O.D. 450 nm]
1 | mono-scFv-phage No. 3 (scFv, V domains shown) VH: QMQLVQSGAEVKKPGASVKVSCKASGYTFTDYYIHWVRQAPGQGLEWMGWINPNSGAPEFAQRFQGRVSMTRDASINTTYMELSGLRSEDTAVYYCVKGLEHAAGSAIFDRWGQGTMVTVSS VL: QTVVTQEPSFSVSPGGTVTLTCGLTSGSVSTSHFPSWYQQTPGQAPRTLIYFKDTRSSGVPDRFSGSILGNKAALTITGAQADDESDYYCALSMGSGIWVFGGGTKLTVL | 3.62 | 3.36 | 0.0002 |  | 
2 | mono-scFv-phage No. 6 (scFv, V domains shown) VH: QVQLVESGGGVVRPGGSLRLSCTASGFTFDDHGMSWVRQAPGKGLEWVSTINLNGGSTAYADSVKGRFTISRDNAKNSLYLQMNSLRAEDTAVYYCSTRHLHHWGQGTLVTVSS VL: DIVMTQTPLSSPVTLGQPASISCRSSQSLVHSNGNTYLTWLQQRPGQPPRLLIHKISNRFSGVPDRFSGSGAGTDFTLKISRVEAEDVGVYYCVQAKQFPLTFGQGTRLEIK | 2.22 | 1.95 | 0.0041 |  | 
3 | mono-scFv-phage No. 8 (scFv, V domains shown) VH: QVQLVQSGGGVVQPGGSLRLSCAASGFSFNDYAMHWVRQVPGKGLEWVSSISWNSRSTVYAASVEGRFSISRDNSKNSLYLQMNSLRAEDAAVYYCTTDLGVVPAAIYAFDIWGQGTMVTVSS VL: DIQMTQSPSVMSASVGDRVNITCRASQGITNWLAWYQQKPGKAPKLLISAASSLQSGVPSRFSGSGSGTDFTLTISSLQPDDFATYYCQQTATFQITFGQGTRLDIK | 2.08 | 1.82 | 0.0044 |  | 
4 | mono-scFv-phage No. 10 (scFv, V domains shown) VH: QVQLVESGGGLIQPGGSLRLSCVASGFTVSSSFMSWVRLAPGKGLEWVALAYSGGNTYYADSVKGRFTVSRDDSSNTLYLQMNSLRAEDTAVYYCSCEGKAVSGSRDLHFEFWSPGTLVTVSS VL: SYELTQAPSLSVSPGQTANIICSGDNLRTKYVSWYQQKPGQAPVLVIYNDNDRPSGIPERFSGTNSGNTAALTISRVEAGDEADYYCQVWDSSSDHLIFGGGTKLTVL | 2.07 | 1.81 | 0.0023 |  | 
5 | 3F antibody (antibody, V domains shown) VH: QMQLVQSGAEVKKPGASVKVSCKASGYTFTDYYIHWVRQAPGQGLEWMGWINPNSGAPEFAQRFQGRVSMTRDASINTTYMELSGLRSEDTAVYYCVKGLEHAAGSAIFDRWGQGTMVTVSS VL: QTVVTQEPSFSVSPGGTVTLTCGLTSGSVSTSHFPSWYQQTPGQAPRTLIYFKDTRSSGVPDRFSGSILGNKAALTITGAQADDESDYYCALSMGSGIWVFGGGTKLTVL |  |  |  | 0.0149 | -0.0105
6 | 6F antibody (antibody, V domains shown) VH: QVQLVESGGGVVRPGGSLRLSCTASGFTFDDHGMSWVRQAPGKGLEWVSTINLNGGSTAYADSVKGRFTISRDNAKNSLYLQMNSLRAEDTAVYYCSTRHLHHWGQGTLVTVSS VL: DIVMTQTPLSSPVTLGQPASISCRSSQSLVHSNGNTYLTWLQQRPGQPPRLLIHKISNRFSGVPDRFSGSGAGTDFTLKISRVEAEDVGVYYCVQAKQFPLTFGQGTRLEIK |  |  |  | 2.36 | 0.0114
7 | 8F antibody (antibody, V domains shown) VH: QVQLVQSGGGVVQPGGSLRLSCAASGFSFNDYAMHWVRQVPGKGLEWVSSISWNSRSTVYAASVEGRFSISRDNSKNSLYLQMNSLRAEDAAVYYCTTDLGVVPAAIYAFDIWGQGTMVTVSS VL: DIQMTQSPSVMSASVGDRVNITCRASQGITNWLAWYQQKPGKAPKLLISAASSLQSGVPSRFSGSGSGTDFTLTISSLQPDDFATYYCQQTATFQITFGQGTRLDIK |  |  |  | 2.32 | -0.0268
8 | 10F antibody (antibody, V domains shown) VH: QVQLVESGGGLIQPGGSLRLSCVASGFTVSSSFMSWVRLAPGKGLEWVALAYSGGNTYYADSVKGRFTVSRDDSSNTLYLQMNSLRAEDTAVYYCSCEGKAVSGSRDLHFEFWSPGTLVTVSS VL: SYELTQAPSLSVSPGQTANIICSGDNLRTKYVSWYQQKPGQAPVLVIYNDNDRPSGIPERFSGTNSGNTAALTISRVEAGDEADYYCQVWDSSSDHLIFGGGTKLTVL |  |  |  | 0.00605 | -0.0248
